No end group written: not given here.
Biological target: the molecule itself
Assay: rheology (elastic modulus G'), P11-4 at 15 mg/ml in different buffers, 37 C; homotypic self-assembly
Procedure: P11-4 was prepared at 15 mg/ml with different buffer compositions (see below) measured at 0.1% strain, 37° C. and a frequency of 1 rad/second. Self-assembly of peptide monomers to polymers takes more than 5 min independent of the used ionic strength at neutral pH.

Does QQRFEWEFEQQ (not fully specified; printed as Gln-Gln-Arg-Phe-Glu-Trp-Glu-Phe-Glu-Gln-Gln) [self-assembling peptide P11-4] bind?
Result: binds
